Consider 2 molecules from publication doi:10.1101/2023.04.03.535362 (bioRxiv, 2023).

By Kd is commonly meant the constant that tells how readily two partners part at equilibrium. As a reminder, the stoichiometry N is the number of molecules, sites or subunits per partner or assembly.

For one data set, the target named is T1, RAD52 FL (human, UniProt P43351 1-418).
T1 sequence: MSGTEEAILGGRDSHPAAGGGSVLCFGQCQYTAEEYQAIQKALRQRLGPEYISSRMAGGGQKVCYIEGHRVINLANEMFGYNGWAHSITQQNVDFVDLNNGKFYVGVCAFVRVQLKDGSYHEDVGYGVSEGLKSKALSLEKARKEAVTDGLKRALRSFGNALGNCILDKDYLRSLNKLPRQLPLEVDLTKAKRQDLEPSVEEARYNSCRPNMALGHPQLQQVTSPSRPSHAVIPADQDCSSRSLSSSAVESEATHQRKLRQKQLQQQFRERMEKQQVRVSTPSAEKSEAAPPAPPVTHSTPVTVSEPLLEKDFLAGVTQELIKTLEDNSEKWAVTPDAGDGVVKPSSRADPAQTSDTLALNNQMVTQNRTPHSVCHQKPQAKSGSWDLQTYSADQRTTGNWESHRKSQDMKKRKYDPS
As to the kind of experiment: fluorescence polarization. Background: Polarisation of emitted light reports the rotation of a fluorescent probe.

The data set “dynamic light scattering” deals with the molecule itself. As to the kind of experiment: dynamic light scattering.

In the data set with RAD52 FL, TTTTTTTTTTTTTTTTTTTTTTTTTTTTTT (ssDNA) [dT30 ssDNA] returned a Kd of 37.2 ± 0.4 nM.

B1: Histidine-tagged human RAD52 N-terminal domain (1-212) (domain or fragment, UniProt P43351 1-212, looked up)
chain: MSGTEEAILGGRDSHPAAGGGSVLCFGQCQYTAEEYQAIQKALRQRLGPEYISSRMAGGGQKVCYIEGHRVINLANEMFGYNGWAHSITQQNVDFVDLNNGKFYVGVCAFVRVQLKDGSYHEDVGYGVSEGLKSKALSLEKARKEAVTDGLKRALRSFGNALGNCILDKDYLRSLNKLPRQLPLEVDLTKAKRQDLEPSVEEARYNSCRPNM
Turning to B1, in the data set “dynamic light scattering”, the “stoichiometry N” value is roughly 11.
